Measured values reported in patent publication US20190134153A1, “IMMUNOMODULATORY EFFECT OF INHALED KINASE INHIBITOR PEPTIDES IN LUNG” (MOERAE MATRIX, INC., priority 2017, published 2019).

Assays:
Assay in all cases: Kinase Profiling Assay
Assay type in all cases: biochemical
Details in all cases: 100 μM
IRAK1(h) = IRAK1(h) (Homo sapiens, UniProt P51617)
Syk(h) = Syk(h) (Homo sapiens, UniProt P43405)
Ros(h) = Ros(h) (Homo sapiens, UniProt P08922)
EphB1(h) = biological target: T1, EphB1(h) (Homo sapiens, UniProt P54762)
T1 sequence (P54762 18-984): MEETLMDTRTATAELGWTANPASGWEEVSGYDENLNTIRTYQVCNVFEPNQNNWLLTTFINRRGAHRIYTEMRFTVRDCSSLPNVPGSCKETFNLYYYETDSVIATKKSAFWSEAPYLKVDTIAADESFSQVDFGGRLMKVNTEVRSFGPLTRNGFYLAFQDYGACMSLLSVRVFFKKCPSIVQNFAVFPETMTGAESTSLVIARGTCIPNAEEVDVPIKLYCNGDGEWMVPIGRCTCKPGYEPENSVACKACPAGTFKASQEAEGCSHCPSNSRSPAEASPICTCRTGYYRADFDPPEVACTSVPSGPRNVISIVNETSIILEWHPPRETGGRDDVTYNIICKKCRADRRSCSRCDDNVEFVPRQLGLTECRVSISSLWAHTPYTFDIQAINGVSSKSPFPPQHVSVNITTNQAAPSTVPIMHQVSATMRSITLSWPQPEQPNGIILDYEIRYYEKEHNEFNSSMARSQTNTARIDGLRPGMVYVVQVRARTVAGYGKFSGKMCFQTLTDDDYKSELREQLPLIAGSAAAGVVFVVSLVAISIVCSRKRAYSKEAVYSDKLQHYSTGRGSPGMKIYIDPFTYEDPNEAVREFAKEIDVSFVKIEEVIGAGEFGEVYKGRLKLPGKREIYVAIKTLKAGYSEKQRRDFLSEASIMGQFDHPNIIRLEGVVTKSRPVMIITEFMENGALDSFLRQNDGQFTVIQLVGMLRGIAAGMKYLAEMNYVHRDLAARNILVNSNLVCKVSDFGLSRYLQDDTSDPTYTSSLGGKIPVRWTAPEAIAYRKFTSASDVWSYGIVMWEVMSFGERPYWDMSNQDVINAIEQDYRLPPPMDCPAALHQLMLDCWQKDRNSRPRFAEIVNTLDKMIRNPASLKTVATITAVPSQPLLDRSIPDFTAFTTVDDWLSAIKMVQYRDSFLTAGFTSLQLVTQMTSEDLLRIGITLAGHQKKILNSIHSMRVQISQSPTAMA

ZAP-70(h) = biological target: T2, ZAP-70(h) (Homo sapiens, UniProt P43403)
T2 sequence (P43403 1-619): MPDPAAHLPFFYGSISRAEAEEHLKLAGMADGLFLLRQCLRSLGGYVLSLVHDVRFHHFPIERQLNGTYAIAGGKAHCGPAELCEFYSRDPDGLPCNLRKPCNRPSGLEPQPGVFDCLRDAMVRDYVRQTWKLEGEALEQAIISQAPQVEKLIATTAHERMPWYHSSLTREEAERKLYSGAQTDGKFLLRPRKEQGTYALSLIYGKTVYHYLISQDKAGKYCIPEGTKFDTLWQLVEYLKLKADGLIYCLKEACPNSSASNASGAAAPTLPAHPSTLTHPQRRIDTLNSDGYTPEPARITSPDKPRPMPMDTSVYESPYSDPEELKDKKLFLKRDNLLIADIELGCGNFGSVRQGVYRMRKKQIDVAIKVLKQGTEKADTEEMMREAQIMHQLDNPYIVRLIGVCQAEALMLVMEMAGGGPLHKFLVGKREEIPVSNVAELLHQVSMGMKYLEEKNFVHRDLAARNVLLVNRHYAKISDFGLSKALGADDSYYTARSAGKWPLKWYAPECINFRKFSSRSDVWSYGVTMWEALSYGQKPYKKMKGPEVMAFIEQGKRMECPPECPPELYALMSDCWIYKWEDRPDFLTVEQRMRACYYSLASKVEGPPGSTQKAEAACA

Abl(T315I)(h) = Abl(T315I)(h) (Homo sapiens, UniProt P00519, T315I)
PrKX(h) = biological target: T3, PrKX(h) (Homo sapiens, UniProt P51817)
T3 sequence (P51817 1-358): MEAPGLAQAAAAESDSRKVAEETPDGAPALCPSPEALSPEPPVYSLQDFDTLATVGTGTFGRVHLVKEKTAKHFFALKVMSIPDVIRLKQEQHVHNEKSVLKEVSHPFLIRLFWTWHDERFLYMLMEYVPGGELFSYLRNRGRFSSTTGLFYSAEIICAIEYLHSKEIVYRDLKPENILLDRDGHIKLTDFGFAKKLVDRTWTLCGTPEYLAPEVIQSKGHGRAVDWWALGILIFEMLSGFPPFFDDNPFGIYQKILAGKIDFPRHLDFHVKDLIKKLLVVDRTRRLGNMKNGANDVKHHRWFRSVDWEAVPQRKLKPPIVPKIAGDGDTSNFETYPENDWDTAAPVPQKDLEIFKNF

HIPK2(h) = HIPK2(h) (Homo sapiens, UniProt Q9H2X6)
Sequence of HIPK2(h) (Q9H2X6 whole entry): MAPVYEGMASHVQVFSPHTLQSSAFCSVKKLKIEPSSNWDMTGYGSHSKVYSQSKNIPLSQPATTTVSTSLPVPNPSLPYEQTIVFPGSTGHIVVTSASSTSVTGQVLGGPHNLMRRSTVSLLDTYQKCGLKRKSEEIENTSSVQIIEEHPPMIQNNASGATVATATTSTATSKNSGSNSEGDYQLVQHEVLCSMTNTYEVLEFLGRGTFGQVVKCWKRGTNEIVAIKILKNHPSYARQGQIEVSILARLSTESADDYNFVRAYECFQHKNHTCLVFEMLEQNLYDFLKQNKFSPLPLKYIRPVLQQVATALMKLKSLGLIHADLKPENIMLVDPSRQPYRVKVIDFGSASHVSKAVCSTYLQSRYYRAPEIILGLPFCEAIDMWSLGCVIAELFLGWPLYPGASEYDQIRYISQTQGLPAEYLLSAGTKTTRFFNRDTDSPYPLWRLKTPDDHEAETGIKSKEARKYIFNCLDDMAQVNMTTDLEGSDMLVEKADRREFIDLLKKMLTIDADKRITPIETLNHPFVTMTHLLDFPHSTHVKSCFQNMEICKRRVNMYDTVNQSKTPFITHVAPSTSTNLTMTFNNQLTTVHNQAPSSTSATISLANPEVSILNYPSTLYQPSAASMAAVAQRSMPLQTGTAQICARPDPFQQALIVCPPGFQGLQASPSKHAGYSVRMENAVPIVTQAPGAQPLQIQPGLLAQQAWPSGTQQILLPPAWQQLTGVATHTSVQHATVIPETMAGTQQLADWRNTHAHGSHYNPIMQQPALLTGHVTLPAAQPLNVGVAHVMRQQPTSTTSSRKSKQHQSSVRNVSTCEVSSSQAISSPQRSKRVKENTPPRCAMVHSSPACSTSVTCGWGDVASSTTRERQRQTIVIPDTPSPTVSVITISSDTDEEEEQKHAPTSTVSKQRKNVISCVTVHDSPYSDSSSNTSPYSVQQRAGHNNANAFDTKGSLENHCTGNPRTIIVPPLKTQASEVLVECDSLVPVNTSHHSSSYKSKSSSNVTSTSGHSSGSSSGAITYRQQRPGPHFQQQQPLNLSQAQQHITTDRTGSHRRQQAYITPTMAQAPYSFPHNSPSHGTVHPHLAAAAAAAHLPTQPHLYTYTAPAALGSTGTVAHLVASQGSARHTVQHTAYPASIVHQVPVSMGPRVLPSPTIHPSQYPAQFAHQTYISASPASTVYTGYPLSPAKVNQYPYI

Sequence of Ros(h) (P08922 28-2347): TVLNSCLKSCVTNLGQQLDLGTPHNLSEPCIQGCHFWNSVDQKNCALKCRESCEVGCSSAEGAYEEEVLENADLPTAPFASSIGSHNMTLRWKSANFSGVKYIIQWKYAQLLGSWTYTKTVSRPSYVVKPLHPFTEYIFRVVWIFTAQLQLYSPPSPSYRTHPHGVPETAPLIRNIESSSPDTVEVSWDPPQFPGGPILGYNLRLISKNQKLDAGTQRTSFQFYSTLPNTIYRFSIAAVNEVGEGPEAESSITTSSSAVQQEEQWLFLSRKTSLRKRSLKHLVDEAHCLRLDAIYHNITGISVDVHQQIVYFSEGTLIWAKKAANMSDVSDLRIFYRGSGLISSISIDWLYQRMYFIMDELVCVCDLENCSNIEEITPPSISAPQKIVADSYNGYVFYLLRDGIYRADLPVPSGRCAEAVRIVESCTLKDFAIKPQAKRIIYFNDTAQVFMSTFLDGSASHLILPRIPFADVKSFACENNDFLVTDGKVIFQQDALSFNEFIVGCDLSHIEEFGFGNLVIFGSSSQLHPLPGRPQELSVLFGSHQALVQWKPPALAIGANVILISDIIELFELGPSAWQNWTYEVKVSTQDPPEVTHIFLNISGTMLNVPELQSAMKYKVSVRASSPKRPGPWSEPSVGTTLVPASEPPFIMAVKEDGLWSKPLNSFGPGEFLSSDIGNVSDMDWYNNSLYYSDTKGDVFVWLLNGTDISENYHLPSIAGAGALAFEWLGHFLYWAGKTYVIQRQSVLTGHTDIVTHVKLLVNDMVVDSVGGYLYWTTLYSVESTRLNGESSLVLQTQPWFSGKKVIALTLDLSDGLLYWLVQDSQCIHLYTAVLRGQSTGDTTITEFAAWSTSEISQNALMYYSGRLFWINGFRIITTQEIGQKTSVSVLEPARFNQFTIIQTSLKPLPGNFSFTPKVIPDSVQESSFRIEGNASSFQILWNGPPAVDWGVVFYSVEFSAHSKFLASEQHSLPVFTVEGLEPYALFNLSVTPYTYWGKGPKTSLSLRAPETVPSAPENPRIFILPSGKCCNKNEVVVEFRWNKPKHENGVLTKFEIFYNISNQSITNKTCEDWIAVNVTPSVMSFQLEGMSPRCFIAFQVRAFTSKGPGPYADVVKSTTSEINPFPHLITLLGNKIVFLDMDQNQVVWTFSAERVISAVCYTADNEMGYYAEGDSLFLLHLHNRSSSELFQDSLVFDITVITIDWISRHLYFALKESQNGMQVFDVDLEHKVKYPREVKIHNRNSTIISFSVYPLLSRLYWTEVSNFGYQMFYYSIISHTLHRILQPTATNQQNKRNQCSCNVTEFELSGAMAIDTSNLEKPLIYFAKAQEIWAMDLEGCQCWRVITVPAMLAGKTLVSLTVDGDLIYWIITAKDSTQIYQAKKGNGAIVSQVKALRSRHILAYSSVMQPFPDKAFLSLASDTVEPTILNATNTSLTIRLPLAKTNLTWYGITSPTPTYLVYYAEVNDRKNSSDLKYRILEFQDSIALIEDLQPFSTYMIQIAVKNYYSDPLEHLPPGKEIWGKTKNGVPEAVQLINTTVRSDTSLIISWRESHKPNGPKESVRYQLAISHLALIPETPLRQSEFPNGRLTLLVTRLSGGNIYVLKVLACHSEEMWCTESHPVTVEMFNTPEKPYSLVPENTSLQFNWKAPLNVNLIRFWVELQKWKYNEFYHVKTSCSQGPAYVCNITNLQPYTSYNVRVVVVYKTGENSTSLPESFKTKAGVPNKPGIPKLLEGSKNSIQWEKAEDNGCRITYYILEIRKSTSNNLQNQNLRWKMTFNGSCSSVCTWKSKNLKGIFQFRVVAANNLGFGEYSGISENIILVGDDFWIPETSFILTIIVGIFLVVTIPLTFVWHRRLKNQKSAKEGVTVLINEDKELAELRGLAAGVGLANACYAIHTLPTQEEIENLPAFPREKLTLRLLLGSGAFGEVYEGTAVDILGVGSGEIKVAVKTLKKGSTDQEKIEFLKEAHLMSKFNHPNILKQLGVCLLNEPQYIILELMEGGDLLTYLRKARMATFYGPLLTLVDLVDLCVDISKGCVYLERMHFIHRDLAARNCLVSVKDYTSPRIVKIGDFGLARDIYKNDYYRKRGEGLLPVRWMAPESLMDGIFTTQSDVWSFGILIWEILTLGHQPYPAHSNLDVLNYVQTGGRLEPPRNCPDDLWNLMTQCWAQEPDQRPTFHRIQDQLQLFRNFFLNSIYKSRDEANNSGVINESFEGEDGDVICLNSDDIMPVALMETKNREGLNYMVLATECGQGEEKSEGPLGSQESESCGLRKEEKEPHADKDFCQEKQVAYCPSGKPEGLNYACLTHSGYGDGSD
Sequence of IRAK1(h) (P51617 whole entry): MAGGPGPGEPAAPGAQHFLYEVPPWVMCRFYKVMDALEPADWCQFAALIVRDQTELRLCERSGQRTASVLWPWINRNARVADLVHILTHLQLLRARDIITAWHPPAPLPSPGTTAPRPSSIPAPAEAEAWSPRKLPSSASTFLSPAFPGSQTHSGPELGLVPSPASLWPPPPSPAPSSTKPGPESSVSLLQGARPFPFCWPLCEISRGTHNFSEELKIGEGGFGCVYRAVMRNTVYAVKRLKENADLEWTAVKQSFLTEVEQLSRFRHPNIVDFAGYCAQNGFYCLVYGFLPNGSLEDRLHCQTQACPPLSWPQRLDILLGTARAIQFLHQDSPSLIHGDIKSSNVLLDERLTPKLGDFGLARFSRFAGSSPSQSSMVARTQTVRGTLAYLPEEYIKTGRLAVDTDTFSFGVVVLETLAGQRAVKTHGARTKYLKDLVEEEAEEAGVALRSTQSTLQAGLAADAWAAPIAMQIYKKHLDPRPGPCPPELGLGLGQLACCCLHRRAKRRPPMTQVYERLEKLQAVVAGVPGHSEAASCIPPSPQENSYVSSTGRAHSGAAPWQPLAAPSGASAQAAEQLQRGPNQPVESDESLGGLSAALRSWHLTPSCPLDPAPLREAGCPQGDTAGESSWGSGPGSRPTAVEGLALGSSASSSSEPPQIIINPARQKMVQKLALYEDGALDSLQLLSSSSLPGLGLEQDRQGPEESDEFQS

YARAAARQARAKALNRQLGVA [MMI-0200]
% activity (IRAK1(h)): 101%
% activity (Syk(h)): 36%
% activity (Ros(h)): 86%
% activity (EphB1(h)): 95%
% activity (ZAP-70(h)): 58%
% activity (Abl(T315I)(h)): 108%

KAFAKLAARLYRKALARQLGVAA [MMI-0400]
% activity (PrKX(h)): 76%
% activity (HIPK2(h)): 90%
% activity (IRAK1(h)): 93%
% activity (Syk(h)): 9%
% activity (Ros(h)): 99%
% activity (EphB1(h)): 58%
% activity (ZAP-70(h)): 33%

HRRIKAWLKKIKALARQLGVAA [MMI-0500]
% activity (PrKX(h)): 57%
% activity (HIPK2(h)): 38%
% activity (IRAK1(h)): 5%
% activity (Syk(h)): 5%
% activity (Ros(h)): 150%
% activity (EphB1(h)): 37%
% activity (ZAP-70(h)): 1%
% activity (Abl(T315I)(h)): 16%

FAKLAARLYRKALARQLGVAA [MMI-0300]
% activity (PrKX(h)): 61%
% activity (HIPK2(h)): 73%
% activity (IRAK1(h)): 95%
% activity (Syk(h)): 24%
% activity (Ros(h)): 95%
% activity (EphB1(h)): 44%
% activity (ZAP-70(h)): 75%
% activity (Abl(T315I)(h)): 97%
